Measured values reported in the nanobody polyreactivity screen of Harvey et al. (2022).

Assay: yeast display, Sf9 membrane polyspecificity reagent, FACS + sequencing; frameworks hold sequencing errors
In short: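 Polyreactivity labels are assigned by the sorting gate from which each nanobody was recovered. The gates were low and high (top ~1%), set on anti-HA fluorescence for expression and streptavidin fluorescence for reagent binding. Before sorting, galactose-induced (36–48 hours) yeast display cells were stained for 1 hour at 4 °C with 10% biotinylated, detergent-solubilized Sf9 membrane reagent.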

## QVQLVESVGGLVQEGGSLRLSSAATGYTFDVYAMGWSRQAPGKERELVAAISTRGTRTYYADSEKGRFTISRDNAKNTVYLQMNSLKPEDTAVYYCAAYVYDGETESRFDYWGQGTQVTVSS
  polyreactivity (PSR sort gate): high polyreactivity

## QVQLVESGGGLVQAGGSLRLSCAASGRTFRRNAMGWYRQAPGKERELVASINRGGGTNYADSVKGRFTISRDNAKHTVYLQMNSLKPEDTAVYYCAAGPGTYWGYDYWGQGTQVTVSS
  polyreactivity (PSR sort gate): low polyreactivity

## QVQLVESGGGLVQAGGSLRLSCAASGITFWNNAMGWYRQAPGKERELVATISSNGGRTYYADSVKGRFTISRDNAKNSVYLQMNSLKPEDTAVYYCNAARRAYGYNYWGQGTQVTVSS
  polyreactivity (PSR sort gate): low polyreactivity

## QVQLVESGGGLVQAGGSLRLSCAASGSIFSYYAMGWYRQAPGKERELVAAISWGDDSTYYADSVKGRFTISRDNAKNTVYLQMNSLKPEDTAVYYCAADRVGWYRTFDYWGQGTQVTVSS
  polyreactivity (PSR sort gate): low polyreactivity

## QVQLVDSGGGLVQAGGTLRLSCAASGRTIYRNDMGWYRQAPGQERELVAAITSSGGTTYADSVKGRFTISRDNAKNTGYLQMNSLKPEDTAVYYCAAVYAYPNIYDYWGQGTQVTVSS
  polyreactivity (PSR sort gate): low polyreactivity

## QVQLVESGGGLVQAGGSLRLSCAASGTFKWYAMGWYRQAPGKERELVAVISSSSSTNYADSVKGRFTISRDNAKNTVYLQMNSLKPKIPAVYYCNAKWTTLFDYWGQGTQVTVSS
  polyreactivity (PSR sort gate): high polyreactivity

## QVQLVESGGVLVQEGGSLSLSCTASRSIFLKYAMGWYRQAPGKERELVAAISSRDASTYYADSVKGRFSISRDNAKKSVYLQMNSLKPEDTAVYYCNVAQNYWAGLYDYWGQGTQVTVSS
  polyreactivity (PSR sort gate): high polyreactivity

## QVQLVESGGGLVQAGGSLRLSCAASGLTFSIYAMGWYREAPGKERELVAAITGRGGRTYYADSVKGRFTISRDNAKNTVYLQMHSLKPEDTAVYYCAARYRGTDFDYWGQGTQVTVSS
  polyreactivity (PSR sort gate): high polyreactivity

## QVQLVESGGGLVQAGGSLRLSCAASGRIFGAYAMGWSRQAPGKERELVAAITSRGGNTYYADSVKGRFTISRDNAKNTVYLQMNSVKPEDTAVYYCAARHDKRRQYYVGQSAFDYWGQGTQVTVSS
  polyreactivity (PSR sort gate): low polyreactivity

## QVQLVESGGGLVQAGGSLRLSCAASGSIFYSNAMGWYRQAAGKERELVAAISVSGVSTYYADSVKGRFTISRDTAKNTVYLQMNSLKPEDTAVYYCAADTGYRYDDYYWWGGEYDYWGQGTQVTVSS
  polyreactivity (PSR sort gate): low polyreactivity

## QEQLQESGSGLVQAGGSLRLSCAASGNIFRDWVMGWYRQAPGKERELVAAISPGAITYYADSVKGRFTISRDNAKNTVYLQTNSLKPEDTEVYYCAAYYIVEYLHGYWGQGTRVTVSS
  polyreactivity (PSR sort gate): low polyreactivity

## QVQLQESVGGLVQAGGSLRLSCASSGSISNSAAMGWYRQAPGKERELVVSIGHGASSNYADSVKGRFTISRDNAKNTVYLQMNSLKPEDTAVYYCAAYPGFLDGFFYWGQSTQVTVSS
  polyreactivity (PSR sort gate): high polyreactivity

## QVQLVESGGGLVQAVGSLRLSCAASGRTIAGYTMGWYRQARGQERELVAAISGRGGSTYYADSVKGRYTISRDNAKNTVYLQMNSLKPEDTAVYYCAAYTQGYWGRGRYGYCGQGTQVTVSS
  polyreactivity (PSR sort gate): high polyreactivity

## QVQLVESGGGLVQAGGSLRLSCAASGRIFSQYAMGWYRQAPGKERELVAAISRRTGSTYYADSVKGRFTISRDNAKNTVYLQMNSLKPEDTAVYYCNKARLGWSYRQDDYLGQGTQVTVSS
  polyreactivity (PSR sort gate): high polyreactivity

## QVQLVESGGGLVQAGGSLRLSCAASGFIFGYNAMGWSRQAPGKERELVAAITWSGGSTYYADSVKGRFTISRDIAKNTVYLQMNSLKPEDTAVYYCNWPGEGDYWGQGTQVTVSS
  polyreactivity (PSR sort gate): low polyreactivity

## QVQLVESGGGLVQAGGSLLLSCAASGRTFQDNAMGWYRQAPGKERELVAAISWRGGSTNYADSVKGRFTISRDNAKNTVYLQMNSLKPEDTAVYYCTRDPRKYGKLDYWGQGTQVTVSS
  polyreactivity (PSR sort gate): low polyreactivity

## QVQHVESGGGLVQAGGSLRLSCAASGRIFSFYVMGWYRQAPGKERELVAVIRKNGGSTYYADSVKGRFTISRDNAKNTVYLQMNSLKPEDTAVYYCTARSVPRYGYWGLGTQVTVSS
  polyreactivity (PSR sort gate): high polyreactivity

## QVQLVESGGGLVQAGGSLRLSCADSGITFDANTMGWYRQAPGKERELVAVITDTGSTNYADSVKGRFTISRDNAKNTVYLQMNSLKPEDTAVYYCNADAEPSSGTSANNDYWGQGTQVTVSS
  polyreactivity (PSR sort gate): low polyreactivity

## QVHLVESGGGLVQAGGSLRLSCAASGSTVTLYAMGWYRQAPGKERELVASITWSGSTYADSVKGRFTISRDNAKNTVYLQMNSLKPEDTAVYYCNTDPRSVVGWYDYWGQGTQVTVSS
  polyreactivity (PSR sort gate): low polyreactivity

## QVQLVESGGGLVQAGGSLRLSCAASGLTFSGYVMGWYRQAPGKERELVAAISSSGGRTYYADSVKGRFTISRDNAKNTVYLQMNSLKPEDTAVYYCAARNKYGGYPYGYDYWGQGTQVTVSS
  polyreactivity (PSR sort gate): high polyreactivity

## QVQLVESGGGLVQAGGSLRLSCAASGLIFSNYAMGWYRQAPGKERELVAAITRTATTKYADSVKGRFTISRDNAKNTVYLQMNSLKPEDSAVYYCAARSYHDRYNSWTDRYGFWGQGTQVTVSS
  polyreactivity (PSR sort gate): high polyreactivity

## QVQLVESGGGLVQAGGSLRLSCAASGRIFGAYAMGWYIQAPGKERELVAAIDIRGGNTYYADSVKGRFTISRDNAKNTVYFQMNSQKPVDTAVYYCAADTWYDAYNYWGQGTQVTVSS
  polyreactivity (PSR sort gate): low polyreactivity

## QVQLVESGGGLVQAGGSLSLSCAASGRIFRRYAMGWYRQAPGKERELVAAISRGGSTYYADSVKGRFTISRDNAKNTVYLQMISLKPEDTAVYYCAAYSQSTSFGGYDSWGQGTQVTVSS
  polyreactivity (PSR sort gate): high polyreactivity

## QVQLVESGGGLVQAGGSLLLSCAASGSILVTYAMGWYRQAPGKERQLVAAISRGGRTYYADSVKGRFTISRDSAKNTVYLQMKSLNPEDNAVYYCNTLTRLVYDGMGYWGQGTQVIVSS
  polyreactivity (PSR sort gate): high polyreactivity

## QVQLVESGGGLVQAGGSLRLSCAASGRTFGYNAMGWYRQAPGKERELVAAIRYSGGSTYYADSVKGRFTISRDNAKNTVYLQMNSLKPEDTAVYYCAKETRRYYRGYYYWGQGTQVTVSS
  polyreactivity (PSR sort gate): high polyreactivity

## QVHLVEAGVGLVQAGGSLRVSCAASGFTFCRYAMVWYRQAPGKERELVAAIRYSGSSTYYADSVKGRFTISRDNAKNTVYLQMNSLKPEDTAVYYCAKRYYGNDYWGQGTQVTVSS
  polyreactivity (PSR sort gate): high polyreactivity

## QVQLVESGGGLVQAGGSLRLSCADYGYIFVGNAMGCYRQAPGKDRELVAAINSGGSTNYADSVKGRFTISRDNEKNTVYLQMNSLKPEDTAVYYCNAEAPRYNYGRMDYLGQGTQVTVSS
  polyreactivity (PSR sort gate): low polyreactivity

## QVQLVESGVGLVQAGGSLLLSCAASGRIFRVYAMGWYRQAPGKERELVAAISWSGGRTYYADSVKGRFTISRDNAKNTVYLQMNSLKPEDTAVYYCAAERCGPTYYSGGDYDYWGQGTQVTVSS
  polyreactivity (PSR sort gate): high polyreactivity

## QVQLVESGGGLVQAGGSLRLSCASSGRIFSNYAMGWYRQAPGKERELVAAISWRTSNTYYADSVKGRFTISRDNAKYTVYLQMNSQKPEDTAVYYCAKYRRFRPYGSNGIYDYWGQGTQVSVSS
  polyreactivity (PSR sort gate): high polyreactivity

## QVQLVESGGGLVQAGGSLRLSCAPSGNIFYINTMGWYRPAPGKERELVAAIDASDGSTYYADSVKGRFTISRDNAKNTVYLQMNSLKPEDTAVYYCATRRGYDSVYYLYTLWYYYWGQGTQVTVSS
  polyreactivity (PSR sort gate): low polyreactivity

## QVQLVESGGGLVQAGGSLRLSCAASGRTSFGYAMGWYRQAPGKERELVAVISIGGTTYYADSVKGRFTISRDNAKNTVYLQMNSLKPEDTAVYYCAKDAETYYWGSYKSLYDYWGQGTQVTVSS
  polyreactivity (PSR sort gate): low polyreactivity

## QVQLVESGGGLVQAGGSLRLSCAASGIILPYYVMGSYRPAPGKERELVAAISSGGRTYYADSVKGRFTISRDNAKNTVYLQMNSLKPEDTAVYYCNAYFTGKWYDYWVQGTQVTVSS
  polyreactivity (PSR sort gate): high polyreactivity

## QVQLVETGGGLVQAGGSLGLSCDASGRIFDYYSMGWYRQATGKERELVASITRGGITYYADSVKGRFTISRDNAKNTVYLQMNSLKPEDTAVYYCADGLRWRRTYGYWGQGTQVTVSS
  polyreactivity (PSR sort gate): high polyreactivity

## QVQLVESGGGLVQAGGSLRLSCADSGRTFSYNLMGWYSQAPGKESEVVAAISRRGGSTYYADSVKGRFTISRDNAKNTVYLQMNSLKPEDTAVYYCNAVSPSPGGGYWGQGSQVTVSS
  polyreactivity (PSR sort gate): high polyreactivity

## QVQLVESGGGLVQAGGSLRLSCAASGRIFKYYVMGWYRQAPGKERELVATISRRDASTYYADSVKGRFTISRDNAKNTVYLQMNSLKPEDTAVYYCNADRARSERIKYDYWGQGTQGTVSS
  polyreactivity (PSR sort gate): high polyreactivity

## QVQLVESGGGLVQAGGSLRLSCAASGSTLLYYAMGWYRQAPGKERELVAAISWRGGSTYYADSVTGRFTISRDNAKTTVYLQINSLKPEDTAVYYCARDIRLKGFRYDYWGQGTQVTVSS
  polyreactivity (PSR sort gate): high polyreactivity

## QVQLVESGGGLVQAGGSLRLSCAASGRTFAKYAMGWYRQAPGKERELVAAIRWSGGSTYYADSVKGRFTISRDNAKNTVYLQMNSLKPEDTAVYYCAARPALWGRYRGYDYWGQGTQVTVSS
  polyreactivity (PSR sort gate): high polyreactivity

## QVQLVESGGGLVQAGGRIRLSCAASGSTYGLNAMGWYRQDPGNEREMVAAITFISGSTNYADSVKGRFSISRDNAKNTVYLQMNSLKPEDTAVYYCAGDSVYYAGYDDDYWGLGTQVTVSS
  polyreactivity (PSR sort gate): low polyreactivity

## QVQLVESGGGLVQAGGSLRLSCAASGRIFRVNAMGWYRQAPGKERELVARIDSGGRTNYADSVKGRFTISRDNAKNTVYLQMTSLKPEDTAVYYCARVFSLARSWYRYYYWGQGTQVTVSS
  polyreactivity (PSR sort gate): high polyreactivity

## QVQLVESGGGLVQAGGSLRLSCAASGRTFSVYVMGWYRQAPGKERELVAAISSSGGRTYYADSVKGRFTISRDNAKNTVYLQMNSLKPEDTAVYYCAAETIVFYVEYNYWGQGTQVTVSS
  polyreactivity (PSR sort gate): low polyreactivity

## QVQLVESGGGLVQAGGSLRLSCAASGNTFVQNTMGWYRQAPGKERELVAAISSRGGSTYYADSVKGRFTISRDNAKNTVYLQMNSLKPEDTAVYYCAARSKVRRSYDYRGQGTQVTVSS
  polyreactivity (PSR sort gate): high polyreactivity

## QVQLVESGGGLVQAGGSLRLSCAASGSTFYIYAMGWYRQAPGKERELVARISGSGGSTYYADSVKVRFTISRDNAKNTVYLQMNSLKPEDTAVYYCAVDPPYSDSLSRYGYWGQGTQVTVSS
  polyreactivity (PSR sort gate): low polyreactivity

## QVQLVESGGGLVQAGGSRRLSCAAAGSTFGVIVMGWYREAPGKEREVVAAITKSGGSTYYADSVKGRFTISRDNAKNTVYLQMNSLKPEDTAVYFCIDAWGREYDYWGQGTQVHVSS
  polyreactivity (PSR sort gate): high polyreactivity
